Experimental data: patent US20150197542A1 (SAMSUNG ELECTRONICS, published 2015)

Molecular target: T1, human c-Met/Fc fusion protein (R&D Systems) (human, UniProt P08581 25-932)
T1 construct: Bought reagent; also called human c-Met/Fc protein; not shown: Fc part of the bought fusion
Assay: ELISA, human c-Met/Fc fusion protein coated at 2 µg/mL, hybridoma culture, anti-mouse IgG-HRP
Experimental: Human c-Met/Fc fusion protein was seeded in an amount of 50 μL (2 μg/mL)/well to microtiter plates and allowed to adhere to the surface of each well. The antibody that remained unbound was removed by washing.
The hybridoma cell culture obtained in Reference Example 1.1.2 was added in an amount of 50 μL to each well of the plates and incubated for 1 hour. The cells remaining unreacted were washed out with a sufficient amount of Tris-buffered saline and Tween 20 (TBST). Goat anti-mouse IgG-horseradish peroxidase (HRP) was added to the plates and incubated for 1 hour at room temperature. The plates were washed with a sufficient amount of TBST, followed by reacting the peroxidase with a substrate (OPD). Absorbance at 450 nm was measured on an ELISA reader.

T1 sequence (P08581 25-932 limits assumed): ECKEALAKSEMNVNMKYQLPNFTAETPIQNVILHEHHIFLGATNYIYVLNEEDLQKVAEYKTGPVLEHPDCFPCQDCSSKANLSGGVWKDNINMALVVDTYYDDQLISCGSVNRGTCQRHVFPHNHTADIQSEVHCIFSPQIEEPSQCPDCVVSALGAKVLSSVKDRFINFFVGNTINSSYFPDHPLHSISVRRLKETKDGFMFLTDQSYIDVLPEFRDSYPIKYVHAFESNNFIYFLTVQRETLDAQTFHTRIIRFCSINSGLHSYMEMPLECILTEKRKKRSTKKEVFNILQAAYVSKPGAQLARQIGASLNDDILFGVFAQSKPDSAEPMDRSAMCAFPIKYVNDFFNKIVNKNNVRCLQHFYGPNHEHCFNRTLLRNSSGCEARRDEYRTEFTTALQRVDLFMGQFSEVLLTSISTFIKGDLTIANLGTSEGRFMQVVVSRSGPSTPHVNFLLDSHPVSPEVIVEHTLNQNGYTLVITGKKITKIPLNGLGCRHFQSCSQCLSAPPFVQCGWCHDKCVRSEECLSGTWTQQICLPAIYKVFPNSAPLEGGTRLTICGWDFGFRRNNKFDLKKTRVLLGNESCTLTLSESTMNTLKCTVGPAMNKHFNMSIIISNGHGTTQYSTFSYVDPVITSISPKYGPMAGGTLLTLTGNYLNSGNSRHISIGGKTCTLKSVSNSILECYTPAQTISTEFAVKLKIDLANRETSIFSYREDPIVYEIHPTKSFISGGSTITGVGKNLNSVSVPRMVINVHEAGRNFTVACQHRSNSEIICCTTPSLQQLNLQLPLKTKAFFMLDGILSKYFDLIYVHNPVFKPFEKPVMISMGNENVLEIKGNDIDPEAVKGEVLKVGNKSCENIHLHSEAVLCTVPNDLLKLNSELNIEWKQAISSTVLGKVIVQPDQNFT

B1: AbF46, mouse monoclonal antibody to c-Met (hybridoma KCLRF-BP-00220) (antibody, V domains shown)
VH: EVKLVESGGGLVQPGGSLRLSCATSGFTFTDYYMSWVRQPPGKALEWLGFIRNKANGYTTEYSASVKGRFTISRDNSQSILYLQMDTLRAEDSATYYCARDNWFAYWGQGTLVTVSA
VL: DILMTQSPSSLTVSAGEKVTMSCKSSQSLLASGNQNNYLAWHQQKPGRSPKMLIIWASTRVSGVPDRFIGSGSGTDFTLTINSVQAEDLAVYYCQQSYSAPLTFGAGTKLELK
notes: Tested as hybridoma culture supernatant in the screening ELISA; also called mouse antibody AbF46
binding result: binds
